Common to all, as to experiment: cell-based or functional assay
In experiment [1] the target is E protein of wild-type DEN-1 16007 virus (dengue-1 virus, strain 16007) (UniProt P27909).
Experiment [2] concerns the target E protein of wild-type DEN-3 16562 virus (dengue-3 virus, strain 16562) (UniProt P27915).
Experiment [3] deals with E protein of wild-type DEN-4 1036 virus (dengue-4 virus, strain 1036) (UniProt P09866).

Where only a bound is given, the exact number is not on record here.

Regarding “monoclonal antibody 3H5 (specific for DEN-2 E protein)”, the Reciprocal serum dilution-plaque reduction neutralization titers (50% endpoint) (reciprocal dilution) in experiment [1] is 20; in experiment [2] it was 40; in experiment [3], less than 20.
